Data published in patent US20110217279.

T1: hBVR-derived substrate peptide GLKRNRYLSFHFK (hBVR aa222-234)
T1 sequence: GLKRNRYLSFHFKS

T2: variant peptide GLKRNRYLAFHFKSGSL
T2 sequence: GLKRNRYLAFHFKSGSL

T3: variant peptide GLKRNRYLAFHFK
T3 sequence: GLKRNRYLAFHFK

B1: GST-hBVR fusion protein (protein)
chain: MNAEPERKFGVVVVGVGRAGSVRMRDLRNPHPSSAFLNLIGFVSRRELGSIDGVQQISLEDALSSQEVEVAYICSESSSHEDYIRQFLNAGKHVLVEYPMTLSLAAAQELWELAEQKGKVLHEEHVELLMEEFAFLKKEVVGKDLLKGSLLFTSDPLEEDRFGFPAFSGISRLTWLVSLFGELSLVSATLEERKEDQYMKMTVCLETEKKSPLSWIEEKGPGLKRNRYLSFHFKSGSLENVPNVGVNKNIFLKDQNIFVQKLLGQFSEKELAAEKKRILHCLGLAEEIQKYCCSRK

Tests used:
[1] = tested on: T1, hBVR-derived substrate peptide GLKRNRYLSFHFK (hBVR aa222-234)
[2] = tested on: T2, variant peptide GLKRNRYLAFHFKSGSL
[3] = tested on: T3, variant peptide GLKRNRYLAFHFK
[4] = biological target: active recombinant human PKC-δ kinase (as a GST fusion protein), Q05655
Chain of active recombinant human PKC-δ kinase (as a GST fusion protein), Q05655 (Q05655 whole entry, looked up, stated change not applied, the tested form may be a part): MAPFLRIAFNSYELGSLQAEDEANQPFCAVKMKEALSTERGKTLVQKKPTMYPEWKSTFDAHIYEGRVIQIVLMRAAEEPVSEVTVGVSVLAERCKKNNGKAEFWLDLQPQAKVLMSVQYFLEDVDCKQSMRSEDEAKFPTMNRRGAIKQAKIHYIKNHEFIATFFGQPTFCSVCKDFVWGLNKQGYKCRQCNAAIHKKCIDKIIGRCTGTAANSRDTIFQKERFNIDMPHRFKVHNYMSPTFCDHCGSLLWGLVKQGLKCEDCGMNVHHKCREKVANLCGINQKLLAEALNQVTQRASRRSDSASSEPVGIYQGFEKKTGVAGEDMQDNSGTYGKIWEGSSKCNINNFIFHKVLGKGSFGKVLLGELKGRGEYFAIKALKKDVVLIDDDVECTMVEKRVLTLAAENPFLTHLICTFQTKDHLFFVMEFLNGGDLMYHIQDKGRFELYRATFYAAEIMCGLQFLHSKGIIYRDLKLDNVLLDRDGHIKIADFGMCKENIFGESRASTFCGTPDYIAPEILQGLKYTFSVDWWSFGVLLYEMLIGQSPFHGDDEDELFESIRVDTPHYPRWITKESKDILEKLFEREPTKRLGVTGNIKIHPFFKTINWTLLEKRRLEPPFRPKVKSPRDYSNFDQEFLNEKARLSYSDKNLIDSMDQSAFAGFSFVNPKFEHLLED

Molecule | Km (phosphorylation of the peptide, in vitro kinase assay, Michaelis-Menten fit) [1] | phosphorylation of the peptide by PKC-δ (kinase assay, FIG. 4C) [2] | phosphorylation of the peptide by PKC-δ (kinase assay, FIG. 4C) [3] | PKC-δ autophosphorylation, phosphorylation of hBVR and kinase activity toward MBP (in vitro kinase assay) [4]
recombinant PKC-βII | Km 14.03 µM |  |  | 
recombinant PKC-ζ | Km 6.89 µM |  |  | 
active recombinant human PKC-δ kinase (as a GST fusion protein) | Km of 1.59±0.58 µM | As with the shorter peptide, the replacement of serine with alanine markedly decreased phosphorylation of the peptide | A variant peptide in which the target serine was replaced by alanine was, as expected, not a substrate for the kinase | 
B1 |  |  |  | resulted in phosphorylation of hBVR concomitant with an enhanced PKC-δ autophosphorylation (FIG. 1A), and increased kinase activity toward the substrate, MBP (FIG. 1B)
